Laboratory results taken from patent US20170080102A1.

Experiments:
[1] = molecular target: CD33 protein (human), on primary patient AML cells and AML cell lines (human) (UniProt P20138); test: cell-based or functional assay
[2] = molecular target: CD33 protein (human), on primary patient AML cells and AML cell lines (human) (UniProt P20138); test: cell-based or functional assay; remark: listed apart in the source

Chain of UniProt P20138 (P20138 18-364): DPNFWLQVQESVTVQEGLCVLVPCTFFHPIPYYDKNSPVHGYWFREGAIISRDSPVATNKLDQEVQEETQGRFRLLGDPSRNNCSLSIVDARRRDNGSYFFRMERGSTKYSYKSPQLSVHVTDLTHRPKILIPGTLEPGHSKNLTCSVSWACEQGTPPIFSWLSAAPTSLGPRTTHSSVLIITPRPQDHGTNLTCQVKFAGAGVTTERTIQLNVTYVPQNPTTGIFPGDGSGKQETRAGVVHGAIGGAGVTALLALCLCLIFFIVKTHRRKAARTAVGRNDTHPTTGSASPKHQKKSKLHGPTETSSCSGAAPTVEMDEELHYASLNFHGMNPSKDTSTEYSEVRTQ

For “non-binding chimeric IgG1-DGN462 conjugate (antibody)”, the IC50, cytotoxicity against primary patient AML cells [1] was greater than 1000 pM.

B1: IMGN779 (anti-huCD33 antibody huMy9-6 conjugated to DGN462 via a cleavable disulfide sulfo-SPDB linker) (antibody, from a related filing, V domains shown)
VH: QVQLQQPGAEVVKPGASVKMSCKASGYTFTSYYIHWIKQTPGQGLEWVGVIYPGNDDISYNQKFQGKATLTADKSSTTAYMQLSSLTSEDSAVYYCAREVRLRYFDVWGQGTTVTVSS
VL: EIVLTQSPGSLAVSPGERVTMSCKSSQSVFFSSSQKNYLAWYQQIPGQSPRLLIYWASTRESGVPDRFTGSGSGTDFTLTISSVQPEDLAIYYCHQYLSSRTFGQGTKLEIKR
B1 was tested, and the IC50, cytotoxicity on MOLM-13 FLT3-ITD AML cell line (WST-8 assay) [2] was 5 pM, the IC50, cytotoxicity on MV4-11 FLT3-ITD AML cell line (WST-8 assay) [2] was 2 pM and the IC50, cytotoxicity on a panel of 21 AML cell lines (WST-8 assay) [2] was 2 to 3000 pM. It also gave an IC50, cytotoxicity on a panel of 21 AML cell lines (WST-8 assay), median [2] of 70 pM and an IC50, in vitro cytotoxicity against primary patient AML cells [2] of 10 to 1500 pM.
